Assays:
PC3-ML^Akt = experiment: Experimental bone metastasis model with PC3-ML cells over expressing constitutively active Akt; assay type: in vivo, male athymic nude mice; conditions: MDA-7/IL-24 protein 5 mg/kg tail vein, 6 doses over three weeks
Description: To evaluate the role of Akt in vivo, metastatic PC3-ML cells and PC3-ML cells over expressing constitutively active Akt (PC3-MI/**) (FIG. 5A) carrying firefly luciferase were injected into male athymic nude mice through the intracardiac route. Clone 1 was used for the in vivo studies, which was validated for expression of Akt downstream pathway gene expression by western blotting (FIG. 14). Proliferation, invasion, and migration of the tumor cells were monitored by IVIS® imaging. […] The Akt overexpressing PC3-ML cells were more metastatic than the control PC3-ML cells. […] These observations illustrate the significance of Akt in PC-mediated bone metastasis development, which can be partially abrogated by MDA-7/IL-24-treatment (FIG. 5B). […] To investigate osteoclastic differentiation in these animals, bone marrow cells were isolated after completion of the study. Osteoclast differentiation was induced as described above. […] Osteoclast differentiation assays further illustrated the importance of Akt in PC-mediated bone metastasis (FIGS. 5D and 5E). A schematic representation of the proposed role of MDA-7/IL-24 protein in PC-mediated bone metastasis through modulation of the bone microenvironment is presented in FIG. 6. […]

RAW 264.7 = experiment: MTT proliferation assay in RAW 264.7 cells; assay type: cell-based, mouse; conditions: His-MDA-7 10 μg/ml, 5 days
Description: MTT Cell Proliferation and Clonal Assays: Cell proliferation assays were done as described previously (25). Briefly, 2,000 cells were seeded in each well of a 96-well plate and allowed to attach overnight. Cells were treated with complete media in the presence or absence of different concentrations of MDA-7/IL-24 protein. At appropriate time points, cells were further incubated with MTT (3-(4, 5-di methyl thiazol-2-yl)-2, 5 diphenyl tetrazolium bromide) reagents. Finally, DMSO was applied to dissolve the blue salt and the OD was measured at 560 nm (25). For determining long-term effects, colony formation (cloning) assays were performed as described earlier (26). […]
To investigate the effect of MDA-7/IL-24 on osteoclast differentiation, bone marrow cells from athymic nude mice were isolated and induced to differentiate with RANKL in the presence or absence of MDA-7/IL-24 protein. Five days after induction with RANKL, osteoclast differentiation was measured by counting multinucleated cells. Cells positively stained for TRAP and multinucleated cells were quantified under a light microscope (FIG. 9A). […] Using RAW 264.7 cells, different genetic markers associated with osteoclastic differentiation were monitored (33). […] RNA was isolated after 5 days of treatment and real time PCR quantified expression of TRAP, Cathepsin K (CTSK), and Calcitonin Receptor (CTR) genes. […]

[1] = system: Akt signaling (p-Akt, p-GSK3β, NFATc1, Mcl-1); experiment: Western blotting of Akt signaling cascade in RAW 264.7 cells; assay type: cell-based, mouse
Source text: Western Blotting: Standard protocols were followed for Western blotting assays (24, 27). The primary antibodies used were pAkt, Akt, pGSK3β, GSK3β, NFATc1, cyclin D1 (Cell Signaling Technology, Danvers, Mass., USA) and EF1α (Abeam, Cambridge, United Kingdom). Appropriate secondary antibodies were purchased from Sigma-Aldrich, Inc. St. Louis, Mo., USA).
MDA-7/IL-24 Regulates AKT Signaling in Mouse Macrophage cells: To determine whether MDA-7/IL-24 protein exerts any effect on Akt activation in our model system, RAW 264.7 cells were treated with MDA-7/IL-24 protein in the presence or absence of RANKL. It was observed that RANKL induces Akt activation in RAW 264.7 cells, and this activated Akt was suppressed by MDA-7/IL-24 protein (FIGS. 3A and 11A). […] The effect of Akt inhibition by a PI3K kinase inhibitor (LY294002) was also studied in the signaling cascade involving NFAT, Mcl-1, and Akt (FIGS. 3B and 11B).
A constitutively active form of Akt (MYR-Akt) was also tested. Cells were transfected with MYR-Akt and treated with MDA-7/IL-24.

bone marrow cells = experiment: Osteoclast differentiation of bone marrow cells isolated from treated PC3-ML tumor bearing animals (TRAP staining, TRACP assay); assay type: in vivo, mice; conditions: MDA-7/IL-24 protein 5 mg/kg, 6 doses; differentiation induced ex vivo
Description: Osteoclast Formation Assays: Bone marrow cells were induced for osteoclast differentiation using previously described protocols (28). Briefly, bone marrow cells were cultured in minimal essential medium (α-MEM) with 10% fetal bovine serum with MCSF (10 ng/ml) for 24 hrs. They were subsequently treated with RANKL (100 ng/ml) for 5 days. Cultured cells were fixed and stained for TRAP (Tartarate-resistant acid phosphatase). TRAP staining was performed following the specific protocol provided with the kit (Sigma-Aldrich, Inc. St. Louis, Mo., USA). Multinucleated cells, considered as differentiated osteoclasts, were counted manually under bright field microscope. TRACP enzymatic assays were done as per the manufacturer's instructions (R & D, Minneapolis, Minn., USA).
This was quantified by counting the number of osteoclasts (FIG. 2D) and also measuring TRACP osteoclastic enzymatic activity (FIG. 2E). These initial results indicated a potential function of MDA-7/IL-24 in regulating osteoclast differentiation.
Suppression of osteoclast differentiation was also evaluated using an in vivo metastatic model (FIG. 4C). Bone marrow cells were isolated after sacrifice of mice and osteoclast differentiation was induced. […] This was evident by counting osteoclasts (FIG. 4C) and also by measuring TRACP osteoclastic enzymatic activity (FIG. 4D).

B1: MDA-7/IL-24 protein: Recombinant His-tagged MDA-7/IL-24 protein purified on Ni-NTA from supernatant of IM-PHFA cells infected with Ad.5-His-mda-7 (protein)
chain: QEFHFGPCQVKGVVPQKLWEAFWAVKDTMQAQDNITSARLLQQEVLQNVSDAESCYLVHTLLEFYLKTVFKNYHNRTVEVRTLKSFSTLANNFVLIVSQLQPSQENEMFSIRDSAHRRFLLFRRAFKQLDVEAALTKALGEVDILLTWMQKFYKL
In the case of B1, the “bone metastasis by PC3-ML^Akt cells” value (PC3-ML^Akt) is reported as “diminished the inhibitory effects”, the “bone metastasis by PC3-ML^Akt cells” value (PC3-ML^Akt; listed as MDA-7/IL-24) is reported as “inhibited metastasis” and the “Proliferation of RAW 264.7 (MTT)” value (RAW 264.7) is reported as “not affected”. For the same molecule, the “RANKL-induced Akt activation” value ([1]; MDA-7/IL-24 protein 10 μg/mL, RANKL 100 ng/mL) was “suppressed”, the “Phosphor-GSK3β, NFATc1, and Mcl-1 expression increased by constitutively active Akt” value ([1]; RAW 264.7 cells transfected with MYR-Akt) was “inhibited” and the Mcl-1 expression ([1]; RAW 264.7 cells, MDA-7/IL-24 treatment) was “profoundly inhibited Mcl-1 expression”. The “number of osteoclasts from bone marrow of treated animals” value (bone marrow cells) was “significantly fewer osteoclasts” and the “osteoclastic activity of bone marrow from treated animals” value (bone marrow cells) was “less osteoclastic activity”.
